Data published in US20220064322A1.
Changes are numbered by the printed parent chain. Read-outs that look alike come from different tables or passages of the source.

How the values were obtained:
[1] = biological target: human CD73 on the cell surface (293T/17-huCD73 cells) (human) (UniProt P21589); assay: cell-based or functional assay
[2] = biological target: human CD73 on the cell surface (293T/17-huCD73 cells) (human) (UniProt P21589); assay: cell-based or functional assay; remark: listed apart in the source
[3] = biological target: human CD73 on the cell surface (293T/17-huCD73 cells) (human) (UniProt P21589); assay: flow cytometry on 293T/17-human CD73 cells
[4] = biological target: human CD73 on the cell surface (293T/17-huCD73 cells) (human) (UniProt P21589); assay: flow cytometry on 293T/17-human CD73 cells, curve fit
[5] = biological target: human CD73 on the cell surface (293T/17-huCD73 cells) (human) (UniProt P21589); assay: cell-based or functional assay; remark: listed apart in the source
[6] = biological target: human CD73 on the cell surface (293T/17-huCD73 cells) (human) (UniProt P21589); assay: flow cytometry on 293T/17-huCD73 cells
[7] = biological target: human CD73 on the cell surface (293T/17-huCD73 cells) (human) (UniProt P21589); assay: flow cytometry on 293T/17-huCD73 cells, curve fit
[8] = biological target: human CD73 on the cell surface (293T/17-huCD73 cells) (human) (UniProt P21589); assay: flow cytometry on 293T/17-huCD73 cells, fluorescently labelled detection antibody, MFI
[9] = biological target: human CD73 on the cell surface (293T/17-huCD73 cells) (human) (UniProt P21589); assay: flow cytometry on 293T/17 cells expressing huCD73, APC-labelled goat anti-human antibody, MFI
[10] = biological target: T1, human CD73 on the cell surface (293T/17-huCD73 cells) (human), P21589; assay: cell-based or functional assay
T1 sequence (P21589 27-549): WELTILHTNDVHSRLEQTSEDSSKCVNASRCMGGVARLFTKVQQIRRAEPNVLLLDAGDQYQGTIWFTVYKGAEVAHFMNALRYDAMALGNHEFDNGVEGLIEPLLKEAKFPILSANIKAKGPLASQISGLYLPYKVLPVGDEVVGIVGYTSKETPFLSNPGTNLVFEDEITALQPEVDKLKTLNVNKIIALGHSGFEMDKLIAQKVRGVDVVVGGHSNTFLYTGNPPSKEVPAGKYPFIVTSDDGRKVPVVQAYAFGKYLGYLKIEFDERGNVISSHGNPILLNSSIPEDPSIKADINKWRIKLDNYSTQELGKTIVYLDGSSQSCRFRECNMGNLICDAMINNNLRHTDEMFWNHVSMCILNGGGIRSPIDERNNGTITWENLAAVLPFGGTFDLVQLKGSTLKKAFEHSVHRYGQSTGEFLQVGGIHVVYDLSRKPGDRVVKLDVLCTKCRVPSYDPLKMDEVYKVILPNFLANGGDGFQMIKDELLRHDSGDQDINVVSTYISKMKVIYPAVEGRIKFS

[11] = biological target: T1, human CD73 on the cell surface …; assay: cell-based or functional assay; remark: listed apart in the source
[12] = biological target: T1, human CD73 on the cell surface …; assay: cell-based or functional assay; remark: listed apart in the source

human CD73 on the cell surface (293T/17-huCD73 cells) (human), sequence (P21589 27-549): as above

B1: JB94H2L1 (antibody, human IgG1, kappa, V domains shown)
VH: QVQLVQSGAEVKKPGASVKVSCKASGYTFTSYWMHWVRQRPGQGLEWMGYINPSSGYTKSNQKFKDRVTLTADTSTSTAYMELSSLRSEDTAVYYCGRWLLSAWFAYWGQGTLVTVSS
VL: DIQMTQSPSSLSASVGDRVTITCKASQDINTYLSWFQQKPGKAPKSLIYRSNILVDGVPSRFSGSGSGQDFTLTISSLQPEDFAIYYCLQYDDFPYTFGQGTKLEIKR
EC50, reversal of AMP-mediated human CD4+ T cell proliferation inhibition [1]: 0.032 nM | IC50, blockade of 5'exonuclease activity of U87-MG cells [2]: 0.214 nM | IC50, blockade of 5'exonuclease activity on 293T/17-human CD73 cells [2]: 0.005 nM | EC50 [3]: 9.15 nM | Bottom [4]: 0.604 fluorescence | Top [4]: 223 fluorescence | EC50, release of IFN-γ from CD4+ T cells (ELISA of supernatant) [5]: 0.002 nM

B2: JB94H3L3 (antibody, human IgG1, kappa, V domains shown)
VH: B1 VH with V5Q, V20L, M48I, V68A
VL: B1 VL with A43S, F71Y
EC50, reversal of AMP-mediated human CD4+ T cell proliferation inhibition [1]: 0.003 nM | IC50, blockade of 5'exonuclease activity of U87-MG cells [2]: 0.456 nM | IC50, blockade of 5'exonuclease activity on 293T/17-human CD73 cells [2]: 0.004 nM | EC50 [3]: 15.3 nM | Bottom [4]: 1.78 fluorescence | Top [4]: 239 fluorescence | EC50, release of IFN-γ from CD4+ T cells (ELISA of supernatant) [5]: 0.003 nM

B3: 191C3A8B9 (antibody, mouse IgG1, kappa, V domains shown)
VH: QVQLKESGPGLVAPSQSLSITCTVSGFSLTNYGVHWVRQPPGKGLEWLGVIWAGGSTNYNSALMSRLSISKDNSKSQLFLKMNSLQADDTAMYYCARERGSSWGTMDYWGQGTSVTVSS
VL: QIVLTQSPAIMSASPGEKVTMTCSASSRVSYMHWYQQKSGTSPKRWIYDTSQLASGVPARFSGSGSGTSYSLTISSMEAEDAATYYCQQWSSNPYTFGGGTKLEMRR
EC50 [6]: 0.828 nM | IC50, blockade of 5'exonuclease activity on 293T/17-HuCD73 cells [2]: 0.009 nM | Bottom (fluorescence intensity) [7]: 2.67 | Top (fluorescence intensity) [7]: 105 | EC50 (read off the curve) [8]: 1 nM

B4: JB24Chi (antibody, human IgG1, kappa, V domains shown)
VH: QVQLQQSGLELVKPGASVKMSCKASGYTFTDYNMHWVKQSHGKSLEWIGYIKPHNGGTTYNPKFEGKATLTVNKSSSTAYMELRSLTSEDSAVYYCVRCDFLYWYFDVWGTGTTVTVSS
VL: DIVMTQSPAIMSASLGERVTMTCTASSSVSSSYLHWYQQKPGSSPKLWIYSTSNLASGVPGRFSGSGSGTSYSLTISSMEAEDAATYYCHQYHRSPLTFGAGTKLEMKR
EC50 [6]: 1.14 nM | EC50, reversal of AMP-mediated human CD4+ T cell proliferation inhibition [1]: 0.003 nM | EC50, release of IFN-γ from CD4+ T cells (ELISA of supernatant) [2]: 0.0132 nM | EC50, reversal of AMP-mediated human CD4+ T cell proliferation inhibition [2]: 0.007 nM | IC50, antibody-mediated internalization of CD73 on MDA-MB-231 cells (Fab-ZAP saporin conjugate) [2]: 0.012 nM | IC50, blockade of 5'exonuclease activity of U87-MG cells [2]: 0.053 nM | IC50, blockade of 5'exonuclease activity on 293T/17-HuCD73 cells [2]: 0.031 nM | IC50, blockade of 5'exonuclease activity on 293T/17-human CD73 cells [2]: 0.006 nM | IC50, blockade of CD73 enzyme activity of CD4+ T cells (CellTiter-Glo) [2]: 0.009 nM | Bottom (fluorescence intensity) [7]: -1.47 | Top (fluorescence intensity) [7]: 42 | EC50 [3]: 5.33 nM | Bottom [4]: 3.72 fluorescence | Top [4]: 196 fluorescence | EC50, release of IFN-γ from CD4+ T cells (ELISA of supernatant) [5]: 0.006 nM | EC50 (read off the curve) [9]: 6 nM

B5: 94H1L3 hIgG2 (antibody)
heavy: QVQLVQSGAEVKKPGASVKVSCKASGYTFTSYWMHWVRQAPGQGLEWMGYINPSSGYTKSNQKFKDRVTMTADTSTSTAYMELSSLRSEDTAVYYCGRWLLSAWFAYWGQGTLVTVSSASTKGPSVFPLAPCSRSTSESTAALGCLVKDYFPEPVTVSWNSGALTSGVHTFPAVLQSSGLYSLSSVVTVPSSNFGTQTYTCNVDHKPSNTKVDKTVERKCCVECPPCPAPPVAGPSVFLFPPKPKDTLMISRTPEVTCVVVDVSHEDPEVQFNWYVDGVEVHNAKTKPREEQFNSTFRVVSVLTVVHQDWLNGKEYKCKVSNKGLPAPIEKTISKTKGQPREPQVYTLPPSREEMTKNQVSLTCLVKGFYPSDIAVEWESNGQPENNYKTTPPMLDSDGSFFLYSKLTVDKSRWQQGNVFSCSVMHEALHNHYTQKSLSLSPGK
light: DIQMTQSPSSLSASVGDRVTITCKASQDINTYLSWFQQKPGKSPKSLIYRSNILVDGVPSRFSGSGSGQDYTLTISSLQPEDFAIYYCLQYDDFPYTFGQGTKLEIKRTVAAPSVFIFPPSDEQLKSGTASVVCLLNNFYPREAKVQWKVDNALQSGNSQESVTEQDSKDSTYSLSSTLTLSKADYEKHKVYACEVTHQGLSSPVTKSFNRGEC
EC50, release of IFN-γ from CD4+ T cells (ELISA of supernatant) [10]: 0.001 nM | EC50, reversal of AMP-mediated human CD4+ T cell proliferation inhibition [11]: 0.012 nM | IC50, blockade of 5'exonuclease activity on 293T/17-human CD73 cells [12]: 0.007 nM

B6: 66-hIgG2 (antibody)
heavy: QVHLQQSGAELAKPGASVNLSCKASGYAFTSYWMHWVKQRPGQGLEWIGYINPSSGLAKYNQKFKDKATLTTDKSSNTAYMQLSSLTYDDSAVYYCGRWLLSAWFAYWGQGTLVTVSAASTKGPSVFPLAPCSRSTSESTAALGCLVKDYFPEPVTVSWNSGALTSGVHTFPAVLQSSGLYSLSSVVTVPSSNFGTQTYTCNVDHKPSNTKVDKTVERKCCVECPPCPAPPVAGPSVFLFPPKPKDTLMISRTPEVTCVVVDVSHEDPEVQFNWYVDGVEVHNAKTKPREEQFNSTFRVVSVLTVVHQDWLNGKEYKCKVSNKGLPAPIEKTISKTKGQPREPQVYTLPPSREEMTKNQVSLTCLVKGFYPSDIAVEWESNGQPENNYKTTPPMLDSDGSFFLYSKLTVDKSRWQQGNVFSCSVMHEALHNHYTQKSLSLSPGK
light: DIKMTQSPSSIYASLGERVTITCKASQGINTYLSWFQQKPGKSPKTLIYRANILVDGVPSRFSGSGSGQDYSLTINSLEYEDMGIYYCLQYDEFPYTFGGGTKLEIKRTVAAPSVFIFPPSDEQLKSGTASVVCLLNNFYPREAKVQWKVDNALQSGNSQESVTEQDSKDSTYSLSSTLTLSKADYEKHKVYACEVTHQGLSSPVTKSFNRGEC
IC50, antibody-mediated internalization of CD73 on MDA-MB-231 cells (Fab-ZAP saporin conjugate) [12]: 0.022 nM

B7: 94-hIgG2 (antibody)
heavy: B6 heavy with H3Q, N19K, A28T, L57Y, A58T, Y60S, T72A, N77S, D89E
light: B6 light with K3R, I11M, G28D, T46S, A51S, N76S, E93D
IC50, antibody-mediated internalization of CD73 on MDA-MB-231 cells (Fab-ZAP saporin conjugate) [12]: 0.019 nM

B8: JB24H2L1 (antibody, human IgG1, kappa, V domains shown)
VH: QVQLVQSGAEVKKPGASVKMSCKASGYTFTDYNMHWVRQSPGKSLEWIGYIKPHNAGTTYNPKFEGRATLTVDTSASTAYMELSSLRSEDTAVYYCVRSDFLYWYFDVWGQGTTVTVSS
VL: DIQMTQSPSSLSASVGDRVTITCTASSSVSSSYLHWYQQKPGKAPKLLIYSTSNLASGVPSRFSGSGSGTDFTLTISSLQPEDFATYYCHQYHRSPLTFGAGTKLEIKR
EC50, reversal of AMP-mediated human CD4+ T cell proliferation inhibition [1]: 0.032 nM | IC50, blockade of 5'exonuclease activity of U87-MG cells [2]: 0.474 nM | IC50, blockade of 5'exonuclease activity on 293T/17-human CD73 cells [2]: 0.042 nM | EC50 [3]: 2.4 nM | Bottom [4]: 1.64 fluorescence | Top [4]: 82.2 fluorescence | EC50, release of IFN-γ from CD4+ T cells (ELISA of supernatant) [5]: 0.002 nM | EC50 (read off the curve) [9]: 2 nM

B9: JB24H3L3 (antibody, human IgG1, kappa, V domains shown)
VH: B8 VH with R38K, P41H, S84R
VL: B8 VL with Q3V, K43S, A44S, L48W, S61G, F72Y
EC50, reversal of AMP-mediated human CD4+ T cell proliferation inhibition [1]: 0.068 nM | IC50, blockade of 5'exonuclease activity of U87-MG cells [2]: 0.12 nM | IC50, blockade of 5'exonuclease activity on 293T/17-human CD73 cells [2]: 0.016 nM | EC50 [3]: 7.41 nM | Bottom [4]: 0.131 fluorescence | Top [4]: 120 fluorescence | EC50, release of IFN-γ from CD4+ T cells (ELISA of supernatant) [5]: 0.345 nM

B10: JB24H3L2 (antibody, human IgG1, kappa, V domains shown)
VH: B8 VH with R38K, P41H, S84R
VL: B8 VL with K43S, L48W, F72Y
EC50, reversal of AMP-mediated human CD4+ T cell proliferation inhibition [1]: 0.022 nM | IC50, blockade of 5'exonuclease activity of U87-MG cells [2]: 0.27 nM | IC50, blockade of 5'exonuclease activity on 293T/17-human CD73 cells [2]: 0.014 nM | EC50 [3]: 3.01 nM | Bottom [4]: 1.78 fluorescence | Top [4]: 91.7 fluorescence | EC50, release of IFN-γ from CD4+ T cells (ELISA of supernatant) [5]: 0.015 nM | EC50 (read off the curve) [9]: 3 nM
